test: soluble on expression in E. coli; label from the status in PepcDB or PDB records

Question: With “MRILGEKVRQFRKRKGMSQKELADGICTQATISLIEKKSKIPSMKIMMKICNRLGIRLSEVIIENDDQLYRTFKKIDTLIRHTQLEEAQDVFQHIRPKQLRSNTDKKQYYYYEGYLQLVLNDNADEAIFNFGMLLNQFVKSSHDMFAILATLGTGLAYERKQAYDKAEIFVKQAVATLHTMDAQAMPMGDDDYLQNEILIYASAAQLYAKINFPEEALELIDLALKKAQESQSLYLLDRLYAQKAANEVVLNNVQSAHDHYYVAYALSLVTHNSSLTEKITKEMAEYHIAPLQVANDA” as the sequence, how does the “soluble on expression in E. coli” value read?
Answer: The value was “not soluble”.

Question: Which “soluble on expression in E. coli” value does the source give for “MGSDKIHHHHHHMTIKETSRSEFITLRGLRYHVRQWGTPGAPKLFMLHGWMDVAASFQFLVDCLERDWHVIAPDWRGFGETDWPTRYPGTESYWFADYIADLEALLDHYQPNGQVDLVGHSMGANVACLYAGIRPERVHRVVDLEGFGLTQTRAEQAPKRYARWLDELRQRPELRTYDDVSGVAARLQKTNPRLPDDRAAFLAEHWSRRNEAGQWEILGDPAHKLVNPVLYRVDEVMAIWAEVSAPVLHVEARDSATLRHIAHKQTLEEFRERFRAFRDFREVVIDDAGHMLHHDQPAAVAALIESFIA” here?
Answer: Its value is “not soluble”.

Question: For “SFQEQTTKSRDVNSFQIPLRDGVRELLPEDASRNRASIKSPVDIWIGGENMTALNGIVDGGRKFEAGQEFQINTFGSVNYWVSDEEIRVFKEYSARAKYAQNEGRTALEANNVPFFDIDVPPELDGVPFSLKARVRHKSKGVDGLGDYTSISVKPAFYITEGDETTDTLIKYTSYGSTGSHSGYDFDDNTLDVMVTLSAGVHRVFPVETELDYDAVQEVQHDWYDESFTTFIEVYSDDPLLTVKGYAQILMERT”, which “soluble on expression in E. coli” value is on record?
Answer: Its value is “soluble”.

Question: For “MGSDKIHHHHHHMSKDCTIQDVFHRFYSSFESTHSISPAQRKAAYHIMNCKTGAFGVNVSVCEDCGCISVHYNSCRDRCCPMCQEFPKEKWVDARREDILDAPYFHVVFTVPEELNPIIYSNQKFLYAALYHAASDTLSELAADSKYLGTDIGYICILHTWGSTMNFHPHIHAIVLGGGLDVKNHWKDNGKDFFLPIKVISKTFRGKYMAELKQLWENDRLEFHGSAAPYKNHYTFKELLNTCYAKEWIPYCKKPFDGAESVIRYLGKYTHRIAISNYRIKDMTESTVTFSAKDYKNQGLWKEITISGEEFIRRFLMHVPPKRFVRIRHYGLLSSRNKKKKITLCRNILGCKKYISKLKDMDAPAIIRLLYNKDICKCSSCGGKIIPLPTEQHFIKPKPHMLC”, which “soluble on expression in E. coli” value is on record?
Answer: The value was “not soluble”.

Question: With “RENFPGVSWDSLPDELLLGIFSCLCLPELLKVSGVCKRWYRLASDESLWQTLDEFRVQHMDLSNSVIEVSTLHGILSQCSKLQNLSLEGLRLSDPIVNTLAKNSNLVRLNLSGCSGFSEFALQTLLSSCSRLDELNLSWCFDFTEKHVQVAVAHVSETITQLNLSGYRKNLQKSDLSTLVRRCPNLVHLDLSDSVMLKNDCFQEFFQLNYLQHLSLSRCYDIIPETLLELGEIPTLKTLQVFGIVPDGTLQLLKEALPHLQINCSHFTTIAR” as the sequence, how does the “soluble on expression in E. coli” value read?
Answer: The value was “soluble”.

Question: For “MTEAEDFAQLLQKLQNASPALPEGTSSTPTPSSSTGLLPNGKKTKGRVKIKMEYINNKLRRYTTFSKRKTGIMKKAFELSTLTGTQVMLLVASETGHVYTYATPKLQPMISSDTGKAMIQSCLNAPGGDGSDVQPSRTEFTFDSGNGGNGMRKRKMLSDVMSAESSNNSPSMPNFTPFLAPSMAPLFSTFGEDDYNNDESGDDSDSEEASSDIKEEYQGSPTMVKQETTEIDSVTASLQQRIKEAMRQAASNKQAIKKAKITPPSSNMNNAAFLNPFLLQGGANASNLLATAARKGDDAGSLTSNPFLSMGLNLQQLIESAAIASNE”, which “soluble on expression in E. coli” value is on record?
Answer: Its value is “not soluble”.

Question: Which “soluble on expression in E. coli” value does the source give for “MSLSNDGRRQIIESAGRSMAEGYAETLRAIDPTLAINLFSPADEADRLPAPLSSYDGVVVTGSSLHVYRTEPAVTRQIDFLREVFDAGVPVFGSCWGLQLGVVAAGGTVIPNPKRREVPFARSVTLTAAGKTHQMHQSRPAAFDALAIHLDVVSVLPPDSVVTAFNDMAAVQAVEFRSGRSLFWGVQYHPEFELPYMASILRRNASSLVAEAAFSSEGELVEMVDAMDSHGNDGDRVRHPSLLPDDVLDRHTRTIEIANWLKMLSSGEGHHHHHH” here?
Answer: Its value is “not soluble”.

Question: Which “soluble on expression in E. coli” value does the source give for “MSLITLKELAKQLNVSVSTVSKALHDAKDISEGTKKRIKEAAQLYNYRPNKTALALKVNKTNTIGVIIPDILNPFFAQVLHGIEDYATEHNYDTIVCVSHDQLKKEAQSLDLLMQGRVDGFILSLSSESLAQDNFLHIDQIALNKKGLVLFDRTTDQVDCDKVVIDDKRSVYDATRILISKGKTKIAFVSNIEDLNLGQLRKEGYENALRDHGIEVNYSLNLDLTGSSDPHGLIKAFLSMQEIDGVISADNTSSLMFKSILKSERPDTNSEIPLIGFSDEKNSLLSYPRIDYIDQNAMKIGSKAAELLINRLESKDLTSKPITFEMPTEIHLYEGHHHHHH” here?
Answer: The value was “soluble”.

Question: For “MAHHHHHHMDKYTKVKNIGKGNMGTCTLARNNEDGKYYVIKQVDLTRMSKKDRQQSLNEARVLSSLRHPNIINYVDSFLARKSDNLCIVMEYAESGDVCTRLKKHYGVNVPERQVVDWLIQLVLSLDYVHQRKILHRDVKTQNIFLTHENLIKLGDFGIARTLANTYDQAQTFVGTPYYLSPELILEQPYDHRSDVWALGVVLYEMLTLKHPFNAKDMKGLLQRILAVHYDPLPTMYSAELRDIVARMLVRDPAGRIKLDEILQIPIVRERIRQWLKEPDVVPQHYVRSLCKHHLLPDFQDEATAMPSTRSAARAAAAMAHEEWRTTSEATSAQTDGDVCARKDTDTRPHVTLGGPFSIPSTAARTAAAVCTSSADEESSDGVRPSIPPLKPYSNLPQLGMASPQLYTPQLPQMHPRVQSNNRASSPSRLFRSPFSTPSVARSAALPISRQQGDPVSQSSPAPLPLQRPIARAKAPTRPYARPYVAQPHLSPSPGYLFAANPRKNPIDARRQQSSRPSGPYLNPLFAAPRQMAPAYRSLVPPLPPPPDIKAMLQRAAAERARR”, which “soluble on expression in E. coli” value is on record?
Answer: The value was “not soluble”.

Question: For “MGSDKIHHHHHHMDFMTALDIGASALSAERTSMNITSMNLANAKTTRTIGGGPYRRKAVVMAATEVDDPFSKHMQSALDRELRGVRVQHIVRDNRPFRQVYEPGHPDADANGYVKYPDINVVEEMANLMTSQRGYQASVSTIEAVKSMYTKALEIGRS”, which “soluble on expression in E. coli” value is on record?
Answer: The value was “not soluble”.

Question: With “MSLLSKFKRNKHQQHLAQLPKISQSVDDVDFFYTPATFRETLLEKIASATQRICIVALYLEQDDGGKGILDALYAAKRQRPELDVRVLVDWHRAQRGRIGAAASNTNADWYCRLAQENPGIDVPVYGVPINTREALGVLHFKGFIIDDSVLYSGASLNDVYLHQHDKYRYDRYQLIRNRQMADIMFDWVTQNLMNGRGVNRLDNTQRPKSPEIKNDIRLYRQELRDASYHFQGDANDEQLSVTPLVGLGKSSLLNKTIFHLMPCAEHKLTICTPYFNLPAVLVRNIIQLLRDGKKVEIIVGDKTANDFYIPEDEPFKIIGALPYLYEINLRRFLSRLQYYVNTDQLVVRLWKDDDNTYHLKGMWVDDKWMLLTGNNLNPRAWRLDLENAILIHDPKQELAPQREKELELIRTHTTIVKHYRDLQSIADYPIKVRKLIRRLRRIRIDRLISRILEGHHHHHH” as the sequence, how does the “soluble on expression in E. coli” value read?
Answer: The value was “soluble”.

Question: With “MTDETENVPKTEQEVPNDPESEKEVKEDAKEEVKDLIPEFYSQHGGDPRLIDIAASVWLSGIPTDFITDTYEQFCETIKNIMKMGHKLDVSTVSKIVRIPNLDSNAKNSEHALRALICFSDKKHIYRMMTREAEFAKEEMKVELIEELPSDALEISEDDKCLLLNGLVEAEDAGDDVDVGGGDDDEIDELMDHDDEGGHDEHEEDEESDVKKEEEKGSEKKEKKPEPPKKKVYEDEDEKAPFEMYWDGAPEFQWRLCEGPRDEKKLIIDNLLWADLNNVFIYRTIQKSTTCEINFPTRFNSDGNRTCHGKLTLFFPGNVAIMDEALKHLVYFRSGDGRRIKVFLPQTTVSLKRKEEFEGKLGRVIKPTERMMQLIVKILPDGYTPTLDEACAWFPLQAVIQCDLVNDEMGNPCAVVKFETAEEAVAAHAGKSFVTIVQKSMITVKDSEGNEKEEEKETETHCNVFMRGGIIMGF” as the sequence, how does the “soluble on expression in E. coli” value read?
Answer: The value was “not soluble”.

Question: With “MSLNIKKAAELSGIKTDNIRYYERIGLIPKITRTESGIRNFTEANIRTLKFVKHMRDAGVQVEPLTRYMALVNEGNPETKEERIEILKNQVEQLRTEIIEKQSALDYLTFKIENYDEVMLPNEINLNQSSKETIKEGHHHHHH” as the sequence, how does the “soluble on expression in E. coli” value read?
Answer: The value was “soluble”.

Question: With “MREVISIHVGQAGVQIGNACWELYCLEHGILPDGTSMEPDGNSGSLGTFFSDTGYGRHVPRSIFVDLEPTVVDEIRTGAYKKLFHPEQMLTGKEDAANNYARGHYTVGKEIIDTTLDRIRRLANNCEGLQGFFVFHSFGGGTGSGFTSMLMERLSAEYGKKSKLEFSIYPAPQISTSVVEPYNSILTTHTTLEHSDCSFMVDNEAIYDICRRNLRVSRPTYNNLNRIISQVVSSITASLRFDGALNVDLNEFQTNLVPYPRIHFPLVAYNPLISSAHHEFLSVDEITKSCFEASNQMVKCDPKHGKYMAVCLLYRGDVVPKDVSAAIKSIKTQRSVQFVDWCPTGFKVGLNYQPPTVIPGGDMAKVPRAVCMLSNTTAIAEAWQRLDYKFDLMYAKRAFVHWYVGEGMEEGEFSEAREDLAALEKDYEEVGADSDANDNGDDEY” as the sequence, how does the “soluble on expression in E. coli” value read?
Answer: Its value is “not soluble”.

Question: For “MISKTSILLLGFACAAVGANYIESAIFKFDDSCEPLEEPRKPEVAKCYEPSTSLPKTLEEYRAMGYDWGEFVHDDKADQAPEGLDEVFTYPMVPFIGMSLLASKKF”, which “soluble on expression in E. coli” value is on record?
Answer: Its value is “not soluble”.

Question: For “MSDNNDRMYELEYPSPEVSGQTAGGPTLIVALQGYADAGHAVESSSSHLMDALDHRLIASFNNDELIDYRSRRPVVVIEHNEVTSMDELNLGLHVVRDNDNKPFLMLSGPEPDLRWGDFSNAVVDLVEKFGVENTICLYAAPMTVPHTRPTVVTAHGNSTDRLKDQVSLDTRMTVPGSASLMLEKLLKDKGKNVSGYTVHVPHYVSASPYPAATLKLLQSIADSADLNLPLLALERDAEKVHRQLMEQTEESSEIQRVVGALEQQYDSE”, which “soluble on expression in E. coli” value is on record?
Answer: Its value is “not soluble”.

Question: Which “soluble on expression in E. coli” value does the source give for “MPEISPYVTKTEVQLMMAGLDYRKTNGSRDTAPKGQLPWIVDAAQAIADSTFIRVHIERKYDVDLDFGLTGRERAQAWAIERMIENQLGWVSTYFRFLEPANFERGPARAFDQAPGHLRDELRQGLREAVAANIRAVGVGRHLREEVAWLGGLSLRALDELLEDKAYLMRDAYPVGVDATAFAMLAAIMTPFFDSPLRRQAERYPRLVAYVGRMMERFYPAHPWGLRQAALEHHHHHH” here?
Answer: The value was “not soluble”.

Question: For “MGSDKIHHHHHHANNFGITYSLPKTSLVVDAEVTKVTCKAGPYYQYAEKYLGVKDAVTEDKIYFDLGKISLINRGLPDADNTYIVEFKQGTVAPYAYLTEDGLLCSINAEYTPVESELDAAKKNKGSQQKVTDTSVFSEELLMAGSTAKQAEVAAKQIYRIRESRLNILTGEADNLPPDGEAMKLVIQQLEEQEKALTNLFTGILTKETEHYEVSIIPHDNLDKEVLFRFSKQLGIVDADDLGGTPVYMNLKATERAPILDAKEAEKKDKSLKGIVYNVPGKASIEILMNKKTLYKGEAQITQFGTREGLAPVMFEDKKAPVKVLFYPETGAIKQIIQ”, which “soluble on expression in E. coli” value is on record?
Answer: Its value is “not soluble”.

Question: For “MELLVKMGWDDWFAAHAGASSDAGRPGRVVAEQRGEYRVRTADGEVAAILTGRAMRETAGDRLERPVVGDWVIVEPVAGDSTVLVRAVLPRRTILARRESGRGAEVQPVAANVDIVFIVAGLDGALNLRRLERFLAAARESGAEPVVLLTKSDLAGDPAAPAEEAATVAPGIRVMTVSSLDGAGVDEVGALLAPGVTACFIGPSGVGKSSLVNLLAGDPVMAIGAVRERDAKGRHTTTHRQLILLPGGGIVIDTPGMREFGLWQVDEGIDAAFPEIAELAAGCRFHDCSHRHEPGCAVRTALAEGGLDPGRYGSYLKLRLEEETMATLADAEGRRERKKGERRMAKGLRAVLRKKGKK”, which “soluble on expression in E. coli” value is on record?
Answer: Its value is “not soluble”.

Question: With “MGHHHHHHSHLPGNTRKMDKTTVLEKVIGFLQKHNEVSAQTEICDIQQDWKPSFLSNEEFTQLMLEALDGFIIAVTTDGSIIYVSDSITPLLGHLPSDVMDQNLLNFLPEQEHSEVYKILSSHMLVTDSPSP” as the sequence, how does the “soluble on expression in E. coli” value read?
Answer: Its value is “soluble”.
